The text below walks through data of PMC3154745 (Chembiochem : a European journal of chemical biology, 2011).

For the experiment, the system named is HP1a (homodimerization). Kind of experiment: Equilibrium analytical ultracentrifugation, HP1a self-association. The note with it: equilibrium AUC.

Substitutions are numbered along the chain they refer to. Names and notes keep the numbering of the source.

B1: W200A: HP1a-CSD point mutant W200A (protein)
chain: EQDTIPVSGSTGFDRGLEAEKILGASDNNGRLTFLIQFKGVDQAEMVPSSVANEKIPRMVIHFYEERLSAYSDNED
modifications: left off: His6 (…), N-terminal, kept | two lysines for solubility, C-terminal, kept
Turning to B1, the “weakening of the dimerization (dissociation) constant relative to wild-type CSD” value is listed as “two-fold weakening”.

B2: S199ES202E: HP1a-CSD phosphorylation mimic, S199E and S202E double mutant (protein)
chain: B1 chain with S69E, A70W, S72E
modifications: left off: His6 (…), N-terminal, kept | two lysines for solubility, C-terminal, kept
With B2, the “weakening of the dimerization (dissociation) constant relative to wild-type CSD” value is 6 fold.
